# From paper PMC7749629
# T1: h-PUS10 (recombinant PUS10 from total HEK293T extract) (human, UniProt Q3MIT2 1-529)
# T1 sequence: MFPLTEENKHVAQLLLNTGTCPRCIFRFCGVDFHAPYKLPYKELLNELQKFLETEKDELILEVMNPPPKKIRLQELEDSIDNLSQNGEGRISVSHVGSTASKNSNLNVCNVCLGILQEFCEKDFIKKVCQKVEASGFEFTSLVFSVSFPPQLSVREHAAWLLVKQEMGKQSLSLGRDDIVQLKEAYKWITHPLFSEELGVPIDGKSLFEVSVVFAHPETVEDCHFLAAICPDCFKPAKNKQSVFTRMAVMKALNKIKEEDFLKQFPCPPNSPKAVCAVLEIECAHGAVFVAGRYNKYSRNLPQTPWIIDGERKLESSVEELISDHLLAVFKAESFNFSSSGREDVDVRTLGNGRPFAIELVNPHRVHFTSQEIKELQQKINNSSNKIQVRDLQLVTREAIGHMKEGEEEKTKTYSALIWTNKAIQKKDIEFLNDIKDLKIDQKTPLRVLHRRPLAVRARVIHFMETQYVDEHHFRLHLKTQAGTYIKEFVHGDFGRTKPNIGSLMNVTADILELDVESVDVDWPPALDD
# Target: T1, h-PUS10 (recombinant PUS10 from total …)
# Experiment: EMSA
binder,measurement,value
"mutated tRNAAU-Ala (U59A, G60A; GAAA at 57-60) (structured_RNA, unmodified transcript) RNA: GGGGAAUUAGCUCAAAUGGUAGAGCGCUCGCUUAGCAUGCGAGAGGUAGCGGGAUCGAAACCCGCAUUCUCCA",binding result,binds
